IntAct's records for PubMed 35512704

B1: Speckle-type POZ protein (Homo sapiens), O43791 (parent)
chain: MSRVPSPPPPAEMSSGPVAESWCYTQIKVVKFSYMWTINNFSFCREEMGEVIKSSTFSSGANDKLKWCLRVNPKGLDEESKDYLSLYLLLVSCPKSEVRAKFKFSILNAKGEETKAMESQRAYRFVQGKDWGFKKFIRRDFLLDEANGLLPDDKLTLFCEVSVVQDSVNISGQNTMNMVKVPECRLADELGGLWENSRFTDCCLCVAGQEFQAHKAILAARSPVFSAMFEHEMEESKKNRVEINDVEPEVFKEMMCFIYTGKAPNLDKMADDLLAAADKYALERLKVMCEDALCSNLSVENAAEILILADLHSADQLKTQAVDFINYHASDVLETSGWKSMVVSHPHLVAEAYRSLASAQCPFLGPPRKRLKQS
partner: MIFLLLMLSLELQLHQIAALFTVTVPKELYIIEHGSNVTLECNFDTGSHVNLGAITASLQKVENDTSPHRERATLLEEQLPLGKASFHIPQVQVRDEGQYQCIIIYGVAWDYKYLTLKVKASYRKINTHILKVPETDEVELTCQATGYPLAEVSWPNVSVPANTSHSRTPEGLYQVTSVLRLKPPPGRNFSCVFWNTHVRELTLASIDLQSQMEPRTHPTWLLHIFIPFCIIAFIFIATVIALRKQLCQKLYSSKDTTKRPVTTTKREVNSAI
B2: Speckle-type POZ protein (Homo sapiens), O43791 (parent)
chain: B1 chain
partner: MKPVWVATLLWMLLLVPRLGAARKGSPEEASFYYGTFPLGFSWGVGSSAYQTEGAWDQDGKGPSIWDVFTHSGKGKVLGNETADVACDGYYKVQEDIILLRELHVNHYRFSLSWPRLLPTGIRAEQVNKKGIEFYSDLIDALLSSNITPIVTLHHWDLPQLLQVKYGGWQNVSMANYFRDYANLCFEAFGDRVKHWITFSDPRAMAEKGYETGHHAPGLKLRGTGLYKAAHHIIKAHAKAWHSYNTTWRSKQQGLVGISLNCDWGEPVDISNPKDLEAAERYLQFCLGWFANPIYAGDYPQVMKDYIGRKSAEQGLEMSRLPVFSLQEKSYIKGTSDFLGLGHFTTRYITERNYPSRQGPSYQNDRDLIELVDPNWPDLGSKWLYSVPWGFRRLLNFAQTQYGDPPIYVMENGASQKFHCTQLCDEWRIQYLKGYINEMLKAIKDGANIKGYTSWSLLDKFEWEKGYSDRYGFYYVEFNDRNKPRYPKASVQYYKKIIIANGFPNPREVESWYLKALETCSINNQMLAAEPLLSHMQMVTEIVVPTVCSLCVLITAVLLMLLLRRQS
B3: Speckle-type POZ protein (Homo sapiens), O43791 (parent)
chain: B1 chain
partner: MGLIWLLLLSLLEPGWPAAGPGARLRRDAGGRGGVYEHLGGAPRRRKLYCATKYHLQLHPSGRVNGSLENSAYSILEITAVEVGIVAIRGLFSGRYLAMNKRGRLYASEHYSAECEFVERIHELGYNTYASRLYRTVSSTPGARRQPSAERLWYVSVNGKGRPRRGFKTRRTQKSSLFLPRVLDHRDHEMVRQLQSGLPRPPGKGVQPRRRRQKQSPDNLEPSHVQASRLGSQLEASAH
B4: Speckle-type POZ protein (Homo sapiens), O43791 (parent)
chain: B1 chain
partner: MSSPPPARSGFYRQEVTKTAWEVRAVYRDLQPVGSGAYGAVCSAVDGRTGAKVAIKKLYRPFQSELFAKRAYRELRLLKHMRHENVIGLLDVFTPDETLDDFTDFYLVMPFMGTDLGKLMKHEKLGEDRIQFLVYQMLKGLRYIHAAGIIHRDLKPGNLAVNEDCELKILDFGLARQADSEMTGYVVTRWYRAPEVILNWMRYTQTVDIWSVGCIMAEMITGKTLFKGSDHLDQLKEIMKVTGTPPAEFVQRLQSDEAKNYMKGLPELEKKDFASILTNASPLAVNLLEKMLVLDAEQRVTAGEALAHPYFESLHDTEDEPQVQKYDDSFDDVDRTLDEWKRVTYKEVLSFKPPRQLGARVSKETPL
B5: Speckle-type POZ protein (Homo sapiens), O43791 (parent)
chain: B1 chain
partner: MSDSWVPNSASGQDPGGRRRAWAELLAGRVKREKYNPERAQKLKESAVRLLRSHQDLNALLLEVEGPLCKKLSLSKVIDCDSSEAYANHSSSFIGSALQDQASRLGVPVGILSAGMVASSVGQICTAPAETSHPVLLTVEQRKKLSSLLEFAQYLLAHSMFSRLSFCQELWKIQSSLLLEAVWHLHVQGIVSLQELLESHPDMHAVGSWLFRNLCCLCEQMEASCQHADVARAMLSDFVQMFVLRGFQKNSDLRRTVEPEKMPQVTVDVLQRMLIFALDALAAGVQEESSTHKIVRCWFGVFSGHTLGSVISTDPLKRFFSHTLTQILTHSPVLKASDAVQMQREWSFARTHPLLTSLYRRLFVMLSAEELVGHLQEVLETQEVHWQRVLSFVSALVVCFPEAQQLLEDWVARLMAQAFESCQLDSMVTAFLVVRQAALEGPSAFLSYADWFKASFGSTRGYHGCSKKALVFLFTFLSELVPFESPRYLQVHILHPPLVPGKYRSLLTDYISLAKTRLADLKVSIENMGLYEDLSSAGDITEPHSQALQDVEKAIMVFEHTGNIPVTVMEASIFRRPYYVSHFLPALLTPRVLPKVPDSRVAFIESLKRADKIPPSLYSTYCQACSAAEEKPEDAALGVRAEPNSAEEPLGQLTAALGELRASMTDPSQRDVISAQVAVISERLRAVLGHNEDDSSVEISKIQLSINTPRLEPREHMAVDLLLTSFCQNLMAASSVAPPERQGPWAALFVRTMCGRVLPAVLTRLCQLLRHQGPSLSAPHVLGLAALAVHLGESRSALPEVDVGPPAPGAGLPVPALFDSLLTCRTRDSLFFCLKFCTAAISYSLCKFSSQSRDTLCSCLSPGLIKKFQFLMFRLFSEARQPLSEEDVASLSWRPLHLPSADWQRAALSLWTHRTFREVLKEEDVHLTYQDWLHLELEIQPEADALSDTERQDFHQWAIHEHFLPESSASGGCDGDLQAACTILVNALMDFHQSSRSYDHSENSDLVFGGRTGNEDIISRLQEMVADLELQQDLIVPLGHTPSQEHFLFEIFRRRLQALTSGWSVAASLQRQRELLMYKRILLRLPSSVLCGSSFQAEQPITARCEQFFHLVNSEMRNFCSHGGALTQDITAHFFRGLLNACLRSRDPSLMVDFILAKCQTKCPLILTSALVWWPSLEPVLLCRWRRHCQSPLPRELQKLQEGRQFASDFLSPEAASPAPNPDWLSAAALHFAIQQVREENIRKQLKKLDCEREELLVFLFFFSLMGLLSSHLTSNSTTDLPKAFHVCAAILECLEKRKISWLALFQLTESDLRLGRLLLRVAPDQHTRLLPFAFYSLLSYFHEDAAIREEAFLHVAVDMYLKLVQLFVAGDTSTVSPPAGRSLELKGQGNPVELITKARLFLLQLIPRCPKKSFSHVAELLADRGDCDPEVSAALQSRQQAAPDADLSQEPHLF
B6: Speckle-type POZ protein (Homo sapiens), O43791 (parent)
chain: B1 chain
partner: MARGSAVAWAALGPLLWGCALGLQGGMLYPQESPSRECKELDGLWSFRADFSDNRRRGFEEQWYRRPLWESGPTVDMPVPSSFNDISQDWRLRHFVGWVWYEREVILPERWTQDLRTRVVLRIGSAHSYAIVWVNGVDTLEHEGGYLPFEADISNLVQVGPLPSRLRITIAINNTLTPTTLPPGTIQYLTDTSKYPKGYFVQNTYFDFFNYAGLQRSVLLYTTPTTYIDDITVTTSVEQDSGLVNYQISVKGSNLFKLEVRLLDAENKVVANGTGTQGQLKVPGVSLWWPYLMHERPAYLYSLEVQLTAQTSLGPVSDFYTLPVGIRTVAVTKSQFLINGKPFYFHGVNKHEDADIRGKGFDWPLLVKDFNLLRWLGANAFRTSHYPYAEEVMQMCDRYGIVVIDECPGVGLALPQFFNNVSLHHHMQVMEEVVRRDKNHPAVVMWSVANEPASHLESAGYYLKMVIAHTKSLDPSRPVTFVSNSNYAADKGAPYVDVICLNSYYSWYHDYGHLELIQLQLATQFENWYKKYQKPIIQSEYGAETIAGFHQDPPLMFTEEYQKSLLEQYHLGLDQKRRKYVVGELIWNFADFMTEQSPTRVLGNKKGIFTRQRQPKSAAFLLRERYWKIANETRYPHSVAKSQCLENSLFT
B7: Speckle-type POZ protein (Homo sapiens), O43791 (parent)
chain: B1 chain
partner: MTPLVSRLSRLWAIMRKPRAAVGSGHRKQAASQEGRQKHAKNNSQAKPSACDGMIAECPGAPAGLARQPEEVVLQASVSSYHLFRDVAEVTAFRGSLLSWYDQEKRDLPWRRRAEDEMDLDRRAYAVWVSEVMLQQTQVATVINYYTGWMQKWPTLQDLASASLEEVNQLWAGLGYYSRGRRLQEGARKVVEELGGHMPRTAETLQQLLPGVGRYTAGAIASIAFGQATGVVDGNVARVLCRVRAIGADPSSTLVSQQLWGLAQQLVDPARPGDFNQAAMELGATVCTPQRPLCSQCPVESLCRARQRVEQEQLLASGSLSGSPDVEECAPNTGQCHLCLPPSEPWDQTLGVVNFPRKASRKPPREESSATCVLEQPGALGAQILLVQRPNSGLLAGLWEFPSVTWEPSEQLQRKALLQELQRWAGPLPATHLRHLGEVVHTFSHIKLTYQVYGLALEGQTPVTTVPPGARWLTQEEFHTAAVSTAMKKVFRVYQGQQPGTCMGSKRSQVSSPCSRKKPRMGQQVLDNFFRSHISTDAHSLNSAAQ

Variants of: B1
Conditions: with pd1l2_human PDCD1LG2, Q9BQ51
In the case of F102C, the “effect of a mutation on the interaction” value is reported as “with no effect”.

Variants of: B2
Conditions: with lctl_human LCTL
For F102C, the “effect of a mutation on the interaction” value was “with no effect”.

Variants of: B2
Conditions: with lctl_human LCTL
Remark: another data set of the same source
With Y87C the “effect of a mutation on the interaction” value was “with no effect”.

Variants of: B2
Conditions: with lctl_human LCTL
Remark: another data set of the same source
With F133L the “effect of a mutation on the interaction” value was “with no effect”.

Variants of: B2
Conditions: with lctl_human LCTL
Remark: another data set of the same source
In the case of F133V, the “effect of a mutation on the interaction” value is reported as “with no effect”.

Variants of: B3
Conditions: with fgf3_human FGF3, P11487
With F102C the “effect of a mutation on the interaction” value was “with no effect”.

Variants of: B3
Conditions: with fgf3_human FGF3, P11487
Remark: another data set of the same source
In the case of Y87C, the “effect of a mutation on the interaction” value is reported as “with no effect”.

Variants of: B3
Conditions: with fgf3_human FGF3, P11487
Remark: another data set of the same source
In the case of F133L, the “effect of a mutation on the interaction” value is reported as “with no effect”.

Variants of: B3
Conditions: with fgf3_human FGF3, P11487
Remark: another data set of the same source
In the case of F133V, the “effect of a mutation on the interaction” value is reported as “with no effect”.

Variants of: B4
Conditions: with mk12_human MAPK12, P53778
In the case of Y87C, the “effect of a mutation on the interaction” value is reported as “with no effect”.

Variants of: B4
Conditions: with mk12_human MAPK12, P53778
Remark: another data set of the same source
With F102C the “effect of a mutation on the interaction” value was “with no effect”.

Variants of: B4
Conditions: with mk12_human MAPK12, P53778
Remark: another data set of the same source
F133L was tested, and the “effect of a mutation on the interaction” value was “with no effect”.

Variants of: B4
Conditions: with mk12_human MAPK12, P53778
Remark: another data set of the same source
For F133V, the “effect of a mutation on the interaction” value was “with no effect”.

Variants of: B5
Conditions: with fanca_human FANCA
For F133L, the “effect of a mutation on the interaction” value was “with no effect”.

Variants of: B5
Conditions: with fanca_human FANCA
Remark: another data set of the same source
In the case of F102C, the “effect of a mutation on the interaction” value is reported as “with no effect”.

Variants of: B5
Conditions: with fanca_human FANCA
Remark: another data set of the same source
In the case of Y87C, the “effect of a mutation on the interaction” value is reported as “with no effect”.

Variants of: B6
Conditions: with bglr_human GUSB
In the case of F133V, the “effect of a mutation on the interaction” value is reported as “with no effect”.

Variants of: B6
Conditions: with bglr_human GUSB
Remark: another data set of the same source
In the case of F133L, the “effect of a mutation on the interaction” value is reported as “with no effect”.

Variants of: B6
Conditions: with bglr_human GUSB
Remark: another data set of the same source
In the case of Y87C, the “effect of a mutation on the interaction” value is reported as “with no effect”.

Variants of: B6
Conditions: with bglr_human GUSB
Remark: another data set of the same source
For F102C, the “effect of a mutation on the interaction” value was “with no effect”.

Variants of: B7
Conditions: with mutyh_human MUTYH
For Y87C, the “effect of a mutation on the interaction” value was “with no effect”.

Variants of: B7
Conditions: with mutyh_human MUTYH
Remark: another data set of the same source
F102C was tested, and the “effect of a mutation on the interaction” value was “with no effect”.

Variants of: B7
Conditions: with mutyh_human MUTYH
Remark: another data set of the same source
In the case of F133L, the “effect of a mutation on the interaction” value is reported as “with no effect”.
